Experiments:
[1] = test system: A-549 lung epithelial cells; assay: Cell proliferation, [3H]thymidine incorporation, A-549; type: cell-based; details: subconfluent, 24 h
Procedure: (§1) Several cell lines are tested for BMP-9 responsiveness in vitro. Cell proliferation, as indicated by [^3 H]thymidine incorporation, is determined in cell lines derived from kidney and lung. Cell proliferation is determined by measuring [^3 H]thymidine incorporation in subconfluent cells treated for 24 h with or without growth factors. NRK-52E (ATCC CRL 1571), WI-38 (ATCC CCL-75), CCD-11Lu (ATCC CCL-202), CCD-16Lu (ATCC CCL-204), and A-549 (ATCC CCL-185) cell lines are placed at 10^4 cells/well in 96 well plates and assayed for [^3 H]thymidine incorporation as described above. IMCD-3 cells (ATCC #CRL-2123) are cultured in a collagen matrix as described by Barros et al., PNAS USA 92:4412-4416 (1995), and treated with growth factors for 6 days to allow tubule formation.

WI-38 cells = assay: Cell proliferation, [3H]thymidine incorporation, WI-38; type: cell-based; details: high doses of rhBMP-9, 24 h
Procedure: as §1

Chang = assay: 125I-BMP-9 binding to Chang liver cell line; details: iodinated CHO-derived BMP-9
Procedure: BMP-9 responsiveness in parenchymal liver cells is tested by screening four liver cell lines for their ability to bind iodinated, CHO-derived BMP-9. […] Specific binding of BMP-9 to HepG2 cells is carried out by incubating HepG2 cells grown to confluence in Dulbecco's Modified Eagle's Medium (DME) containing 10% heat-inactivated fetal calf serum (FCS) on gelatinized 6 well plates with 2 ng/ml ^125 I-BMP-9 and increasing concentrations of unlabelled BMP-9 in binding buffer (136.9 mM NaCl, 5.37 mM KCl, 1.26 mM CaCl2, 0.64 mM MgSO4, 0.34 mM Na2 HPO4, 0.44 mM KH2 PO4, 0.49 mM MgCl2, 25 mM HEPES and 0.5% BSA, pH 7.4) for 20 hours at 4° C. to achieve binding equilibrium. This incubation follows a one hour preincubation at 37° C. in binding buffer alone. For crosslinking experiments, the cells were incubated with 500 μM disuccinimidyl suberate for 20 minutes at […] following binding. Cell extracts were analyzed on SDS-PAGE. […] The curvilinear nature of the Scatchard plot indicates negative cooperativity among BMP-9 receptors or that HepG2 cells express at least two populations of BMP-9 receptors with different affinities. Crosslinking analysis on HepG2 cells with ^125 I-BMP-9 yields two binding proteins of apparent molecular weights of 54 and 80 kD. […]

kidney plasma membranes = assay: [125I]rhBMP-9 binding to kidney plasma membranes; parameters: species or system rat
Procedure: (§2) To determine potential target tissues for BMP-9, plasma membrane preparations from adult rat organs are screened for specific [^125 I]rhBMP-9 binding. Plasma membranes are prepared by the methods of Neville, J. Biophys Biochem Cytol 8:412-422 (1960) and Ray, Biochim Biophys Acta 196:1-9 (1970) with the following modifications: Fresh tissues from adult male Long-Evans rats are homogenized with 10 strokes of a teflon homogenizer. Plasma membranes are collected from discontinuous sucrose gradients at 37%/41% sucrose interface and the 41%/45% sucrose interface. Homogenization buffer and sucrose solutions are supplemented with 0.7 μg/ml leupeptin, 2 μg/ml aprotinin and 240 μg/ml pefabloc. Protein levels in plasma membrane preparations are determined by the bicinchoninic acid assay (Pierce, Rockford, Ill.) using immunoglobulin G as a standard.
(§3) BMP-9 binding is carried out by suspending plasma membranes at 30 μg/100μl in binding buffer (136.9 mM NaCl, 5.37 mM KCl, 1.26 mM CaCl2, 0.64 mM MgSO4, 0.34 mM Na2 HPO4, 0.44 mM KH2 PO4, 0.49 mM MgCl2, 25 mM HEPES and 0.5% BSA, pH 7.4) containing o.5 ng [^125 I]rhBMP-9. Binding is allowed to equilibrate by incubation for 16 h at 4° C. […]
(§4) To verify that this specific binding is of high affinity, a more complete displacement profile is determined with lung and kidney plasma membranes.

lung plasma membranes = assay: [125I]rhBMP-9 binding to lung plasma membranes; parameters: species or system rat
Procedure: as §2, §3, §4

W-20-17 = assay: Alkaline phosphatase activity in W-20-17 osteoprogenitor cell line; type: cell-based; details: dose responsive
Procedure: W-20 cells are plated into 96 well tissue culture plates at a density of 10,000 cells per well in 200 μl of media (DME with 10% heat inactivated fetal calf serum, 2 mM glutamine and 100 U/ml+100 μg/ml streptomycin. The cells are allowed to attach overnight in a 95% air, 5% CO2 incubator at 37° C.
The 200 μl of media is removed from each well with a multichannel pipettor and replaced with an equal volume of test sample delivered in DME with 10% heat inactivated fetal calf serum, 2 mM glutamine and 1% penicillin-streptomycin. Test substances are assayed in triplicate.
The test samples and standards are allowed a 24 hour incubation period with the W-20 indicator cells. After the 24 hours, plates are removed from the 37° C. incubator and the test media are removed from the cells.
The W-20 cell layers are washed 3 times with 200 μl per well of calcium/magnesium free phosphate buffered saline and these washes are discarded.
50 μl of glass distilled water is added to each well and the assay plates are then placed on a dry ice/ethanol bath for quick freezing. Once frozen, the assay plates are removed from the dry ice/ethanol bath and thawed at 37° C. […]
The spectrophotometric absorbance for each well is read at a wavelength of 405 nanometers. […] For example, using known amounts of p-nitrophenol phosphate, absorbance values are generated.

- specific [125I]rhBMP-9 binding (kidney plasma membranes; adult rat kidney plasma membranes, displaceable by 100-fold excess of unlabeled rhBMP-9): evident
- Kd (kidney plasma membranes; rat kidney plasma membranes): 0.3 nM
- specific [125I]rhBMP-9 binding (lung plasma membranes; adult rat lung plasma membranes, displaceable by 100-fold excess of unlabeled rhBMP-9): evident
- Kd (lung plasma membranes; rat lung plasma membranes): 0.6 nM
B1: BMP-9: recombinant human bone morphogenetic protein-9, mature amino acids #1-#110 of SEQ ID NO:9, expressed in CHO cells (protein)
chain: TRECSRSCPRTAPQRQVRAVTRRTRMAHVAAGSTLARRKRSAGAGSHCQKTSLRVNFEDIGWDSWIIAPKEYEAYECKGGCFFPLADDVTPTKHAIVQTLVHLKFPTKVG
modifications: 125I-iodinated as tracer; unlabelled BMP-9 used as the displacing ligand
- cell proliferation ([3H]thymidine incorporation) [1]: inhibited proliferation
- cell proliferation ([3H]thymidine incorporation) (WI-38 cells): statistically significant stimulation
- specific binding of 125I-BMP-9 (Chang): to some extent
- ED50, stimulation of alkaline phosphatase activity (W-20-17): 4 ng/mL

— patent US6034062A, “Bone morphogenetic protein (BMP)-9 compositions and their uses” (Genetics Institute, Inc., priority 1997, dated 2000)
